Data as given in article PMC11665475, “The CTR hydrophobic residues of Nem1 catalytic subunit are required to form a protein phosphatase complex with Spo7 to activate yeast Pah1 PA phosphatase” (The Journal of Biological Chemistry, 2024).
Changes are numbered by the printed parent chain.

Experiments:
Experiment in all cases: cell-based or functional assay
[1] = biological target: T1, protein A-tagged Nem1 Δ(414–446) (S. cerevisiae, UniProt P38757 1-413)
T1 sequence (looked up): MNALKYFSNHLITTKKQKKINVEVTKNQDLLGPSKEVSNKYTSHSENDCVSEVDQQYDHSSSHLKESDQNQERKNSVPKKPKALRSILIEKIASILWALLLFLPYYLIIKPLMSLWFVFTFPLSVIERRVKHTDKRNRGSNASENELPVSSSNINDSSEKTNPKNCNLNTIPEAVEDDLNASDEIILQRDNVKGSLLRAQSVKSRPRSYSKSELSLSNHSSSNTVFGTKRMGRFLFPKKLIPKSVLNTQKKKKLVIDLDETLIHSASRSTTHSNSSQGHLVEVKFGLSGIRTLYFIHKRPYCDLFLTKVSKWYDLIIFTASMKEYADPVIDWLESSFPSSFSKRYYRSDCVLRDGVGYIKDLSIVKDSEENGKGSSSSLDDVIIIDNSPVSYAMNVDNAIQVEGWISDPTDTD

protein A-tagged Nem1 8R = biological target: T2, protein A-tagged Nem1 8R (S. cerevisiae, UniProt P38757 1-446, L414 R | L415 R | L417 R | L418 R | L421 R | V430 R | L434 R | L436 R)
T2 sequence (looked up): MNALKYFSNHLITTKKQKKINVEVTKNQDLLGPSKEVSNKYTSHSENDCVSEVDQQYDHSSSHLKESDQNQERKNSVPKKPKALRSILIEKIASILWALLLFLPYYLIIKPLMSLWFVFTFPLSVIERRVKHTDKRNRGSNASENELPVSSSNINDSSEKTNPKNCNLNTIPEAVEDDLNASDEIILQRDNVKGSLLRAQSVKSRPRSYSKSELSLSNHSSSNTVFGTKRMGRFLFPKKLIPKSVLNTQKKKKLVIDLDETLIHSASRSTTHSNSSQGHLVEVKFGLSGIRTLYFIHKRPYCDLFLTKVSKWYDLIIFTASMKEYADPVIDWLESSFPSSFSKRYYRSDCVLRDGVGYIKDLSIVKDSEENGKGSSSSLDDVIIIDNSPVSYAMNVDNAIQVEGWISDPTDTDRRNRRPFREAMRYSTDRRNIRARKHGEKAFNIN

protein A-tagged Nem1 8A = biological target: T3, protein A-tagged Nem1 8A (S. cerevisiae, UniProt P38757 1-446, L414 A | L415 A | L417 A | L418 A | L421 A | V430 A | L434 A | L436 A)
T3 sequence (looked up): T2 sequence (looked up) with R414A, R415A, R417A, R418A, R421A, R430A, R434A, R436A

Measured: share of purified phosphorylated Pah1 found in the pellet of membranes containing the Nem1-PtA variant and Spo7 after centrifugation at 100,000g (translocation of Pah1 to membranes)

B1: Spo7 (natural protein, S. cerevisiae, UniProt P18410 1-259, looked up)
chain: MEPESIGDVGNHAQDDSASIVSGPRRRSTSKTSSAKNIRNSSNISPASMIFRNLLILEDDLRRQAHEQKILKWQFTLFLASMAGVGAFTFYELYFTSDYVKGLHRVILQFTLSFISITVVLFHISGQYRRTIVIPRRFFTSTNKGIRQFNVKLVKVQSTWDEKYTDSVRFVSRTIAYCNIYCLKKFLWLKDDNAIVKFWKSVTIQSQPRIGAVDVKLVLNPRAFSAEIREGWEIYRDEFWAREGARRRKQAHELRPKSE
≤ 20%: all assays above
